Assay [1] addresses human IL1RAP on cells (human) (UniProt Q9NPH3). The assay can be described thus: cell-based or functional assay.
Assay [2] has as its target T1, human IL1RAP (human, UniProt Q9NPH3 21-367, limits assumed, biotinylated in the ELISA screens (site not stated)).
T1 construct: also called huIL1RAP; IL1RAP antigen
T1 sequence (looked up): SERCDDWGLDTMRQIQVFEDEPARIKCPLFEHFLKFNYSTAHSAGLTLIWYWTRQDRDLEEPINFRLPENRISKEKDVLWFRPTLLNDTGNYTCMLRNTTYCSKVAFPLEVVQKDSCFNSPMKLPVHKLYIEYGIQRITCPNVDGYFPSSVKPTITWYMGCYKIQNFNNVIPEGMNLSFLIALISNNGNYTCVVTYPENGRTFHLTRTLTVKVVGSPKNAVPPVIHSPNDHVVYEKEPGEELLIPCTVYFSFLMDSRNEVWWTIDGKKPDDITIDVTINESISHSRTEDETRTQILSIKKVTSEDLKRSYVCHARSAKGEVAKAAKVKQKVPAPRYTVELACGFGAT
The assay can be described thus: ELISA of point mutant IgG (heavy chain mutant with the parental chimeric light chain, CHO-E expression), one bar each, concentration not given. An excerpt: (§1) For light chain 13 variants (T25A, E27Q, N28S, N30S, Y50A, K52S, T53Y, A55Q, E56S, H90Q, H91S, G93S and S95P) and 19 heavy chain variants (Y27G, I28T, L30S, T31S, W33Y, M34I, N35S, Q50R, F521, A541, S55L, D56G, S57I, T58A, N61A, E62Q, M63K, K65Q and D66G) were generated separately in the vector pTT5 (See FIG. 3A/B). The light chain mutants were paired with the parental chimeric heavy chain and heavy chain mutants were paired with parental chimeric light chain for expression analysis in CHO-E cells for 7 days. The resulting variants were evaluated for binding in ELISA experiments and compared to the parental chimeric IgG which has mouse variable region but human constant regions. For light chain variants, six point mutants VK-T25A, E27Q, N28S, N30S, K52S and T53Y depicted binding similar to chimeric IgG (+10% control; FIG. 3A) while for heavy chain […] point mutants VH-I28T, L30S, M34I, N35S, D56G, T58A, N61A, E62Q, M63K, K65Q and D66G depicted similar binding as chimeric IgG (+10% control; FIG. 3B).

Assay [3] deals with T1, human IL1RAP. The assay can be described thus: ELISA of point mutant IgG (light chain mutant with the parental chimeric heavy chain, CHO-E expression), one bar each, concentration not given.
Description: as §1

Data on 30 molecules can be found in US20240317868A1 (Boehringer Ingelheim, published 2024).

Numbering of substitutions follows the chain as printed. Numbers in names are those of the source. Where only a bound is given, the exact number is not on record here.

B1: CAN04 (antibody, INN chains, looked up, V domains shown)
VH: QVQLVQSGAEVKKPGSSVKVSCKASGYAFTSSWMNWVRQAPGQGLEWMGRIYPGDGNTHYAQKFQGRVTLTADKSTSTAYMELSSLRSEDTAVYYCGEGYLDPMDYWGQGTLVTVSS
VL: DIQMTQSPSSLSASVGDRVTITCQASQGINNYLNWYQQKPGKAPKLLIHYTSGLHAGVPSRFSGSGSGTDYTLTISSLEPEDVATYYCQQYSILPWTFGGGTKVEIK
For the molecule B1, in assay [1], the IC90 IFN-gamma release (WB), IL-33 is greater than 1000 nM; the IC90 IL-8 release (NCI-H292), IL1-B is greater than 1000 nM; the IC90 IL-8 release (NCI-H292), IL-1A was greater than 1000 nM; the IC90 IL-8 release (NCI-H292), IL-33 amounted to 46 nM. In assay [1], this molecule registered an IC90 IL-8 release (NCI-H292), IL-36G greater than 1000 nM; an IC90 MIP-1B release (WB), IL1-B of 125 nM; an IC90 MIP-1B release (WB), IL-1A greater than 1000 nM; an IC90 MIP-1B release (WB), IL-36G of 43 nM. Moreover, in assay [1], the IC90 Nf-KB activation (HEK-Blue), IL1-B came out at 56 nM; the IC90 Nf-KB activation (HEK-Blue), IL-1A is greater than 1000 nM; the IC90 Nf-KB activation (HEK-Blue), IL-33 is greater than 1000 nM; the IC90 Nf-KB activation (HEK-Blue), IL-36G is greater than 1000 nM.

B2: GO11 chimeric IgG, heavy chain point mutant VH-D56G (antibody, V domains shown)
VH: QVHLQQSGPELVRPGTSVKISCEASGYIFLTYWMNWVKQRPGQGLEWIGQIFPASGSTYYNEMFKDKARFTVDKSSSTAYMQFSSLTSEDTAVYFCARSGPYSYYAGGYALDYWGQGTSVTVSS
VL: DIQMTQSPASLSASVGETVTITCRTSENINSYLAWYQQKQGKSPQLLVHYAKTLAEGVPSRFSGSGSGTQFSLKINSLKPEDFGSYYCQHHYGTSLTFGAGTKLELK
notes: Heavy chain mutant paired with the parental chimeric light chain; IgG backbone, expressed in CHO-E
As for B2, the binding result with human IL1RAP [2] is listed as “binds”.

B3: VK-Y50A (antibody, V domains shown)
VH: B2 VH with G56D
VL: DIQMTQSPASLSASVGETVTITCRTSENINSYLAWYQQKQGKSPQLLVHAAKTLAEGVPSRFSGSGSGTQFSLKINSLKPEDFGSYYCQHHYGTSLTFGAGTKLELKR
notes: germlining point mutant, paired with the parental chimeric heavy chain; also called GO11 chimeric IgG, light chain point mutant Y50A; copies: 2 + 2
Turning to B3, the binding result with human IL1RAP [3] is given as “binds”.

B4: VH-Y27G (antibody, V domains shown)
VH: B2 VH with Y27G, G56D
VL: B3 VL with A50Y
notes: germlining point mutant, paired with the parental chimeric light chain; also called GO11 chimeric IgG, heavy chain point mutant Y27G; copies: 2 + 2
B4: in the assay with human IL1RAP [2], the binding result is “binds”.

B5: VK-S95P (antibody, V domains shown)
VH: B2 VH with G56D
VL: B3 VL with A50Y, S95P
notes: germlining point mutant, paired with the parental chimeric heavy chain; also called GO11 chimeric IgG, light chain point mutant S95P; copies: 2 + 2
For B5, the binding result in the assay with human IL1RAP [3] is “binds”.

B6: VK-E56S (antibody, V domains shown)
VH: B2 VH with G56D
VL: B3 VL with A50Y, E56S
notes: germlining point mutant, paired with the parental chimeric heavy chain; also called GO11 chimeric IgG, light chain point mutant E56S; copies: 2 + 2
For B6, the binding result with human IL1RAP [3] was “binds”.

B7: GO11 chimeric IgG, heavy chain point mutant VH-M63K (antibody, V domains shown)
VH: B2 VH with G56D, M63K
VL: B2 VL
notes: as for B2
Turning to B7, the binding result with human IL1RAP [2] was “binds”.

B8: GO11 chimeric IgG, heavy chain point mutant VH-K65Q (antibody, V domains shown)
VH: B2 VH with G56D, K65Q
VL: B2 VL
notes: as for B2
As to B8, in the assay with human IL1RAP [2], the binding result is on record as “binds”.

B9: GO11 chimeric IgG, light chain point mutant VK-N30S (antibody, V domains shown)
VH: B2 VH with G56D
VL: B2 VL with N30S
notes: Light chain mutant paired with the parental chimeric heavy chain; IgG backbone, expressed in CHO-E
As for B9, in the assay with human IL1RAP [3], the binding result is “binds”.

B10: GO11 chimeric IgG, light chain point mutant VK-K52S (antibody, V domains shown)
VH: B2 VH with G56D
VL: B2 VL with K52S
notes: as for B9
With B10, the binding result in the assay with human IL1RAP [3] was “binds”.

B11: VH-S55L (antibody, V domains shown)
VH: B2 VH with S55L, G56D
VL: B3 VL with A50Y
notes: germlining point mutant, paired with the parental chimeric light chain; also called GO11 chimeric IgG, heavy chain point mutant S55L; copies: 2 + 2
As to B11, the binding result in the assay with human IL1RAP [2] is “no binding”.

B12: GO11 chimeric IgG, light chain point mutant VK-E27Q (antibody, V domains shown)
VH: B2 VH with G56D
VL: B2 VL with E27Q
notes: as for B9
Turning to B12, the binding result with human IL1RAP [3] is “binds”.

B13: GO11 chimeric IgG, light chain point mutant VK-N28S (antibody, V domains shown)
VH: B2 VH with G56D
VL: B2 VL with N28S
notes: as for B9
For the molecule B13, the binding result with human IL1RAP [3] is “binds”.

B14: GO11 chimeric IgG, heavy chain point mutant VH-D66G (antibody, V domains shown)
VH: B2 VH with G56D, D66G
VL: B2 VL
notes: as for B2
On to B14, for which the binding result in the assay with human IL1RAP [2] was “binds”.

B15: GO11 chimeric IgG, heavy chain point mutant VH-I28T (antibody, V domains shown)
VH: B2 VH with I28T, G56D
VL: B2 VL
notes: as for B2
Regarding B15, the binding result with human IL1RAP [2] is “binds”.

B16: VH-Q50R (antibody, V domains shown)
VH: B2 VH with Q50R, G56D
VL: B3 VL with A50Y
notes: germlining point mutant, paired with the parental chimeric light chain; also called GO11 chimeric IgG, heavy chain point mutant Q50R; copies: 2 + 2
Turning to B16, the binding result in the assay with human IL1RAP [2] was “binds”.

B17: VH-F52I (antibody, V domains shown)
VH: B2 VH with F52I, G56D
VL: B3 VL with A50Y
notes: germlining point mutant, paired with the parental chimeric light chain; also called GO11 chimeric IgG, heavy chain point mutant F52I; copies: 2 + 2
As to B17, the binding result in the assay with human IL1RAP [2] was “binds”.

B18: VK-H90Q (antibody, V domains shown)
VH: B2 VH with G56D
VL: B3 VL with A50Y, H90Q
notes: germlining point mutant, paired with the parental chimeric heavy chain; also called GO11 chimeric IgG, light chain point mutant H90Q; copies: 2 + 2
For B18, in the assay with human IL1RAP [3], the binding result is “binds”.

B19: GO11 chimeric IgG, heavy chain point mutant VH-N35S (antibody, V domains shown)
VH: B2 VH with N35S, G56D
VL: B2 VL
notes: as for B2
For B19, the binding result with human IL1RAP [2] is “binds”.

B20: GO11 chimeric IgG, light chain point mutant VK-T25A (antibody, V domains shown)
VH: B2 VH with G56D
VL: B2 VL with T25A
notes: as for B9
Take B20: the binding result with human IL1RAP [3] is reported as “binds”.

B21: VH-W33Y (antibody, V domains shown)
VH: B2 VH with W33Y, G56D
VL: B3 VL with A50Y
notes: germlining point mutant, paired with the parental chimeric light chain; also called GO11 chimeric IgG, heavy chain point mutant W33Y; copies: 2 + 2
As to B21, in the assay with human IL1RAP [2], the binding result is listed as “binds”.

B22: GO11 chimeric IgG, heavy chain point mutant VH-M34I (antibody, V domains shown)
VH: B2 VH with M34I, G56D
VL: B2 VL
notes: as for B2
As to B22, the binding result with human IL1RAP [2] is “binds”.

B23: GO11 chimeric IgG, heavy chain point mutant VH-L30S (antibody, V domains shown)
VH: B2 VH with L30S, G56D
VL: B2 VL
notes: as for B2
In the case of B23, in the assay with human IL1RAP [2], the binding result was “binds”.

B24: GO11 chimeric IgG, heavy chain point mutant VH-E62Q (antibody, V domains shown)
VH: B2 VH with G56D, E62Q
VL: B2 VL
notes: as for B2
Turning to B24, in the assay with human IL1RAP [2], the binding result is recorded as “binds”.

B25: VK-A55Q (antibody, V domains shown)
VH: B2 VH with G56D
VL: B3 VL with A50Y, A55Q
notes: germlining point mutant, paired with the parental chimeric heavy chain; also called GO11 chimeric IgG, light chain point mutant A55Q; copies: 2 + 2
Consider B25, for which, in the assay with human IL1RAP [3], the binding result is “binds”.

B26: GO11 chimeric IgG, heavy chain point mutant VH-T58A (antibody, V domains shown)
VH: B2 VH with G56D, T58A
VL: B2 VL
notes: as for B2
Turning to B26, the binding result in the assay with human IL1RAP [2] was “binds”.

B27: VK-G93S (antibody, V domains shown)
VH: B2 VH with G56D
VL: B3 VL with A50Y, G93S
notes: germlining point mutant, paired with the parental chimeric heavy chain; also called GO11 chimeric IgG, light chain point mutant G93S; copies: 2 + 2
With B27, the binding result with human IL1RAP [3] is on record as “binds”.

B28: VK-H91S (antibody, V domains shown)
VH: B2 VH with G56D
VL: B3 VL with A50Y, H91S
notes: germlining point mutant, paired with the parental chimeric heavy chain; also called GO11 chimeric IgG, light chain point mutant H91S; copies: 2 + 2
With B28, the binding result in the assay with human IL1RAP [3] is given as “binds”.

B29: VH-S57I (antibody, V domains shown)
VH: B2 VH with G56D, S57I
VL: B3 VL with A50Y
notes: germlining point mutant, paired with the parental chimeric light chain; also called GO11 chimeric IgG, heavy chain point mutant S57I; copies: 2 + 2
As to B29, the binding result with human IL1RAP [2] is recorded as “binds”.

B30: GO11 chimeric IgG, heavy chain point mutant VH-N61A (antibody, V domains shown)
VH: B2 VH with G56D, N61A
VL: B2 VL
notes: as for B2
Take B30: the binding result with human IL1RAP [2] was “binds”.
